What all share (test): single-molecule magnetic tweezers
Test [1] deals with T1, Full-length vinculin (FL-vinculin) (UniProt P18206-2 1-1066).
T1 sequence (looked up): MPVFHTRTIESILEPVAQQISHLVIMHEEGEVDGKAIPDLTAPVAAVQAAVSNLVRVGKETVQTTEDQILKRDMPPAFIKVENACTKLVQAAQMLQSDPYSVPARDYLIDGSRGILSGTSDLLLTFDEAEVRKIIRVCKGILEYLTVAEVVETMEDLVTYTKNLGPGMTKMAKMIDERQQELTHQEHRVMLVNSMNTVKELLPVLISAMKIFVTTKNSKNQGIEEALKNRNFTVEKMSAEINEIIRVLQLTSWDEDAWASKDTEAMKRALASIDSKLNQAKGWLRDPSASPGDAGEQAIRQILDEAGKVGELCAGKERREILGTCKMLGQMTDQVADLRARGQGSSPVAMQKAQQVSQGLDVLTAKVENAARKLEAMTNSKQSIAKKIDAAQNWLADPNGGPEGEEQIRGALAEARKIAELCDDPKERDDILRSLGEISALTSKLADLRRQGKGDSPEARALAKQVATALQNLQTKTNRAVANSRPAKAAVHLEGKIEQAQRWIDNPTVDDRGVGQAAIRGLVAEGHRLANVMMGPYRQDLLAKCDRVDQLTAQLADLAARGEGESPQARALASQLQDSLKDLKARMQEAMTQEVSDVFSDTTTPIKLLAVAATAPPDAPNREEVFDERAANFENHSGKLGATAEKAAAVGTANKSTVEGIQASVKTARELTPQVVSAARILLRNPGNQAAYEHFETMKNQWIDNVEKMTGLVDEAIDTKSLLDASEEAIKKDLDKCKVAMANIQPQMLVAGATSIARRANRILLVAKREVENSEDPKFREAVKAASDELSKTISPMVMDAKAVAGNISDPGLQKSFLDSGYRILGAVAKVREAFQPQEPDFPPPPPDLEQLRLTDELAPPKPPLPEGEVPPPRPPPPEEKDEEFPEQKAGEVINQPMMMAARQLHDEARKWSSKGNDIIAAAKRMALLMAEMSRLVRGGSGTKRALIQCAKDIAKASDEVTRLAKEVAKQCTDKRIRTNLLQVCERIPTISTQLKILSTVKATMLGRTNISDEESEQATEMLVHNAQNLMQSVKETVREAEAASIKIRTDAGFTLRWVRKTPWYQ

The target of a further test is T2, vinculin T12 mutant (UniProt P18206-2 1-1066, D974A | K975A | R976A | R978A).
T2 sequence (looked up): T1 sequence (looked up) with D974A, K975A, R976A, R978A

The next test concerns the target T3, vinculin head (D1-D4) (UniProt P18206-2 1-835).
T3 sequence (looked up): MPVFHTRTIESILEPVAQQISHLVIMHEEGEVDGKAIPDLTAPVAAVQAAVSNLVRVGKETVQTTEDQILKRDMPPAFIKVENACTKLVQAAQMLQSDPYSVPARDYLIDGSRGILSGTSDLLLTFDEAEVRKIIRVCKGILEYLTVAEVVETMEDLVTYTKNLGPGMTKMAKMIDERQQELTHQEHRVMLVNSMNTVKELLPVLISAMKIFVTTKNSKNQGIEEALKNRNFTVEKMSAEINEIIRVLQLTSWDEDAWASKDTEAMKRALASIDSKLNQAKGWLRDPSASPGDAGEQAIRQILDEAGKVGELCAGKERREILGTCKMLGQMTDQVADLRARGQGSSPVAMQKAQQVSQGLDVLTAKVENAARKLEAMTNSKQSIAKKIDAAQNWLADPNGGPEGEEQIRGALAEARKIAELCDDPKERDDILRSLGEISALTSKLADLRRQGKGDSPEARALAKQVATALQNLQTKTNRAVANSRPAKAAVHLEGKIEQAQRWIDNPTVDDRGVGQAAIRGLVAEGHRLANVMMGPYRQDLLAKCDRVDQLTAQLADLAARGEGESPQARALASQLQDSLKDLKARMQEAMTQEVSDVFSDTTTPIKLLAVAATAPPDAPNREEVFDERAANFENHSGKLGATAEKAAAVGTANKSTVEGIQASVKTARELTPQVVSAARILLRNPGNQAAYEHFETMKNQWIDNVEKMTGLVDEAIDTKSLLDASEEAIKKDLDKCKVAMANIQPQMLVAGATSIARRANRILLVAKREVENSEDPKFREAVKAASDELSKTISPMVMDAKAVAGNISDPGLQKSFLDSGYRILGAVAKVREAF

Positions count from the first letter of the chain named.

B1: talin R4-R6 domains (stretchable talin R4-R6 fragment) (domain or fragment, UniProt P26039 913-1357, looked up)
chain: LVQRLEHAAKQAAASATQTIAAAQHAASAPKASAGPQPLLVQSCKAVAEQIPLLVQGVRGSQAQPDSPSAQLALIAASQSFLQPGGKMVAAAKASVPTIQDQASAMQLSQCAKNLGTALAELRTAAQKAQEACGPLEMDSALSVVQNLEKDLQEIKAAARDGKLKPLPGETMEKCTQDLGNSTKAVSSAIAKLLGEIAQGNENYAGIAARDVAGGLRSLAQAARGVAALTSDPAVQAIVLDTASDVLDKASSLIEEAKKASGHPGDPESQQRLAQVAKAVTQALNRCVSCLPGQRDVDNALRAVGDASKRLLSDSLPPSTGTFQEAQSRLNEAAAGLNQAATELVQASRGTPQDLARASGRFGQDFSTFLEAGVEMAGQAPSQEDRAQVVSNLKGISMSSSKLLLAAKALSTDPASPNLKSQLAAAARAVTDSINQLITMCTQQA
modifications: N-terminus linked to a superparamagnetic bead through a 572-bp double strand DNA linker
B1: in test [1], the dissociation rate constant (koff) – broadly, the rate constant with which the complex falls apart – was 0.014 s⁻¹ and the kon (as a rule, the rate constant with which the complex forms) is 1e+06 M⁻¹ s⁻¹. In the test with vinculin T12 mutant, binding was characterised by a dissociation constant (Kd) of 1.9 nM, the koff was found to be 0.021 s⁻¹ and the kon amounted to 1.1e+07 M⁻¹ s⁻¹. In the test with vinculin head (D1-D4), the affinity, expressed as Kd, was 0.6 nM; the koff amounted to 0.0022 s⁻¹; the on-rate constant (kon) came to 3.7e+06 M⁻¹ s⁻¹.

For the origin of these results see article doi:10.1101/2021.04.26.441533 (bioRxiv, 2021).
